The values below come from paper PMC3858840.

Read-outs that look alike come from different tables or passages of the source.

Test [1] concerns the target FERM domain of human moesin (residues 1–346) (human) (UniProt P26038). Kind of test: other fluorescence titration.
The target in test [2] is TMR-CLS: TMR-labeled CLS_S329C (transmembrane and cytoplasmic domains of human L-selectin), in liposomes (human). Kind of test: other fluorescence titration.
Test [3] shares this target. Kind of test: other fluorescence titration. This is another data set of the same source.
In test [4] the target is TMR-ARR18, ARR18 with the N-terminal residue changed to cysteine and labelled with tetramethylrhodamine-5-maleimide (human). Kind of test: other fluorescence titration.
For test [5], the target named is TMR-CLS: TMR-labeled CLS_S329C (transmembrane and cytoplasmic domains of human L-selectin), in liposomes (human). Kind of test: other fluorescence titration. The source holds these as a separate data set.
Test [6] shares this target. Kind of test: other fluorescence titration. The source holds these as a separate data set.
Test [7] shares this target. Kind of test: other fluorescence titration. The source holds these as a separate data set.
The target is the same in test [8]. Kind of test: other fluorescence titration. This is another data set of the same source.
In test [9] the target is moesin-FERM/TMR-CLS complex in 15% POPS/85% POPC liposome (human) (UniProt P26038). Kind of test: other fluorescence titration.
For test [10], the target named is L-selectin cytoplasmic peptide cytoplasmic domain (Homo sapiens) (UniProt P14151). Particulars: cited from earlier work.

Sequence of FERM domain of human moesin (residues 1–346) (P26038 1-346): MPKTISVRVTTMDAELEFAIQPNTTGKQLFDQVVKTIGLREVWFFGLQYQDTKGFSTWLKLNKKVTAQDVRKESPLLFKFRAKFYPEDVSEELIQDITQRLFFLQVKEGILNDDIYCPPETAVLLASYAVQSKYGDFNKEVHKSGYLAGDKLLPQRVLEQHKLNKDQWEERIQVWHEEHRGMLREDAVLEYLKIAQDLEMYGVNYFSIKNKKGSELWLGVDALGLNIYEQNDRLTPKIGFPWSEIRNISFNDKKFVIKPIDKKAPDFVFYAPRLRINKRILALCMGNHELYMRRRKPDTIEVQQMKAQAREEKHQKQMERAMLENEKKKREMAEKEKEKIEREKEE
Sequence of moesin N-terminal fragment 1-296 (P26038 1-296): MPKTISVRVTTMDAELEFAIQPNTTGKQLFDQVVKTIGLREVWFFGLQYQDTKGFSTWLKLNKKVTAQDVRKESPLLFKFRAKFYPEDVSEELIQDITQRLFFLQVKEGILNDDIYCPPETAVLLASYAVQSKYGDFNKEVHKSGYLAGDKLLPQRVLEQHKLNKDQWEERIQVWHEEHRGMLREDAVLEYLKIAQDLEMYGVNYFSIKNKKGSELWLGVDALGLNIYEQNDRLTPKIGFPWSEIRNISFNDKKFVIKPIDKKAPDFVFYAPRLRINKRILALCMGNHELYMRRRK
Sequence of FERM domain of human moesin (residues 1–346) (human) (P26038 1-346): as the sequence (P26038 1-346) above

Take “ARR18, cytoplasmic domain peptide of human L-selectin (residues Ala317–Tyr334)”: the Kd in test [1] worked out at 196 nM.
“FERM domain of human moesin (residues 1–346) (from UniProt P26038 1-346) (domain or fragment)”: the Kd in [2] came out at 133 nM; in [3] it was 302 nM; in [4], 214 nM; in test [5] it was 67 nM; in test [6], 74 nM; in [7] it was 70 nM. Moreover, the Kd in test [8] turned out to be 96 nM.
As to “calmodulin (CaM), wild type (from UniProt P0DP23 1-149) (natural protein)”, the Kd in test [9] was found to be 800 nM.
With “moesin N-terminal fragment 1-296 (from UniProt P26038)”, the Kd in [10] is 40 nM.

By Kd is commonly meant the constant that tells how readily two partners part at equilibrium.
